According to IntAct's records for PubMed 21527715:

B1: Complement receptor type 2 (Homo sapiens), P20023 (parent)
chain: MGAAGLLGVFLALVAPGVLGISCGSPPPILNGRISYYSTPIAVGTVIRYSCSGTFRLIGEKSLLCITKDKVDGTWDKPAPKCEYFNKYSSCPEPIVPGGYKIRGSTPYRHGDSVTFACKTNFSMNGNKSVWCQANNMWGPTRLPTCVSVFPLECPALPMIHNGHHTSENVGSIAPGLSVTYSCESGYLLVGEKIINCLSSGKWSAVPPTCEEARCKSLGRFPNGKVKEPPILRVGVTANFFCDEGYRLQGPPSSRCVIAGQGVAWTKMPVCEEIFCPSPPPILNGRHIGNSLANVSYGSIVTYTCDPDPEEGVNFILIGESTLRCTVDSQKTGTWSGPAPRCELSTSAVQCPHPQILRGRMVSGQKDRYTYNDTVIFACMFGFTLKGSKQIRCNAQGTWEPSAPVCEKECQAPPNILNGQKEDRHMVRFDPGTSIKYSCNPGYVLVGEESIQCTSEGVWTPPVPQCKVAACEATGRQLLTKPQHQFVRPDVNSSCGEGYKLSGSVYQECQGTIPWFMEIRLCKEITCPPPPVIYNGAHTGSSLEDFPYGTTVTYTCNPGPERGVEFSLIGESTIRCTSNDQERGTWSGPAPLCKLSLLAVQCSHVHIANGYKISGKEAPYFYNDTVTFKCYSGFTLKGSSQIRCKADNTWDPEIPVCEKETCQHVRQSLQELPAGSRVELVNTSCQDGYQLTGHAYQMCQDAENGIWFKKIPLCKVIHCHPPPVIVNGKHTGMMAENFLYGNEVSYECDQGFYLLGEKKLQCRSDSKGHGSWSGPSPQCLRSPPVTRCPNPEVKHGYKLNKTHSAYSHNDIVYVDCNPGFIMNGSRVIRCHTDNTWVPGVPTCIKKAFIGCPPPPKTPNGNHTGGNIARFSPGMSILYSCDQGYLLVGEALLLCTHEGTWSQPAPHCKEVNCSSPADMDGIQKGLEPRKMYQYGAVVTLECEDGYMLEGSPQSQCQSDHQWNPPLAVCRSRSLAPVLCGIAAGLILLTFLIVITLYVISKHRARNYYTDTSQKEAFHLEAREVYSVDPYNPAS

Variants of: B1
Conditions: with co3_human C3, P01024
Chain of co3_human C3, P01024 (P01024 whole entry): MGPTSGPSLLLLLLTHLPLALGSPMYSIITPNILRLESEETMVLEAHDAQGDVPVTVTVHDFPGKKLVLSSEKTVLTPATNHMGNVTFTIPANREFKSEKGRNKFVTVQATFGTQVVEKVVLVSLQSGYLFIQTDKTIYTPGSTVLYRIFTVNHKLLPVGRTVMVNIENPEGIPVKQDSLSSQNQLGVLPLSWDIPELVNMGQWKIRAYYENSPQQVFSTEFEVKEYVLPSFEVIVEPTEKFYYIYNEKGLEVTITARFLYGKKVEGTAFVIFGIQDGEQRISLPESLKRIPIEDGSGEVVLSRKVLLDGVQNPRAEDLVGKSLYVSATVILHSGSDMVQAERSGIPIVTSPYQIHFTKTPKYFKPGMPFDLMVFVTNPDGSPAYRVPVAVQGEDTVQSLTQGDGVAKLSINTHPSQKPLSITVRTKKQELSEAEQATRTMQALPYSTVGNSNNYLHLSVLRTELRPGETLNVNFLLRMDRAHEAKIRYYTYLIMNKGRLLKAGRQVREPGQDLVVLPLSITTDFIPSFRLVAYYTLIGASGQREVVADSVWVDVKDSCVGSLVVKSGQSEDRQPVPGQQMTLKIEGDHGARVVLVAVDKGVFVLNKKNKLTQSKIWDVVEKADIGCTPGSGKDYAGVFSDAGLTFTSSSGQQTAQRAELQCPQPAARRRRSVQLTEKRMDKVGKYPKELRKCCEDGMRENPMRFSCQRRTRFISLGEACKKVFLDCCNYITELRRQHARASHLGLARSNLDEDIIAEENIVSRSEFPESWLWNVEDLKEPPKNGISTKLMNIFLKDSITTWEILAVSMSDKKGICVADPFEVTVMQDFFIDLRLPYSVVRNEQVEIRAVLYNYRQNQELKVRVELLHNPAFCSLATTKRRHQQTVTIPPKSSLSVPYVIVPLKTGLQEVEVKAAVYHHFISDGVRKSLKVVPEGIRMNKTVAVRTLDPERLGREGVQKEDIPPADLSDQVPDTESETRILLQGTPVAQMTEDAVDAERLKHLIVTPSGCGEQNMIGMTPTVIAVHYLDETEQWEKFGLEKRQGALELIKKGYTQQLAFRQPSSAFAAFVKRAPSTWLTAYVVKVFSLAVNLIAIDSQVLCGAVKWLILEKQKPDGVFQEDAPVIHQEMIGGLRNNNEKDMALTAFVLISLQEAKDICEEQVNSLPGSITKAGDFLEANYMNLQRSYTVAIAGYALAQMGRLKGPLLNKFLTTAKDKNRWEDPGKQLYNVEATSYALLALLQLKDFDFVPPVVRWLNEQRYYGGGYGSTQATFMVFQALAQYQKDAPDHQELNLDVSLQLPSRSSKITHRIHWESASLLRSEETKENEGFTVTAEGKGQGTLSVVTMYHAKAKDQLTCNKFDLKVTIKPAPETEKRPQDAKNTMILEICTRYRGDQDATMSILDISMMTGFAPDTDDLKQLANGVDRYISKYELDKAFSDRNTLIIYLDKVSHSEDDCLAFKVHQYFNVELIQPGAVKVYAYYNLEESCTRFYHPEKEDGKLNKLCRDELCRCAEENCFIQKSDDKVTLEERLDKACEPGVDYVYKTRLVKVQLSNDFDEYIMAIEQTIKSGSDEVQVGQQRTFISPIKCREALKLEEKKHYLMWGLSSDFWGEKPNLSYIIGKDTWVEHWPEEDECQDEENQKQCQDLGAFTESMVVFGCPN
For K128A, the “effect of a mutation on the interaction” value was “decreasing interaction”.
With R103A the “effect of a mutation on the interaction” value was “decreasing interaction”.
D112A was tested, and the “effect of a mutation on the interaction” value was “decreasing interaction”.
